Assay results published in the supplement of paper PMC10126150.
± gives the standard deviation of the averaged measurements.

What follows are sequences tested on ATP (assay: switch fluorescence ratio, 500 uM ATP over buffer (Cy3 cluster intensity, sum of 5 cycles each) (fold (ratio)); higher = stronger signal-on switching upon ATP binding; sequences stand for … in TCGTCGGCAGCGTCAGATGTGTATAAGAGACAGTTTTTTTTTTTTTTTTTTTTTTTTT…TC). Conditions: aptamer strand: ATP DNA aptamer (quencher-CACCTGGGGGAGTATTGCGGAGGAAGG + anchor), 100 nM annealed; ATP concentration: 500 uM.
Outline: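 For every switch-domain sequence, the fluorescence ratio is the mean of per-cluster values, each being summed target-cycle Cy3 intensity over summed buffer-cycle Cy3 intensity. Clusters outside 100-1000 RFU were excluded. On a modified Illumina MiSeq flow-cell, the Cy3-labelled switching-strand clusters were annealed to 100 nM quencher-labelled ATP aptamer, imaged in selection buffer and then after 15 min with 500 uM ATP at 22 °C. Five such cycles were run, with NaOH stripping and re-annealing between them.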
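Also: ATP exposure 15 min at 22 °C before imaging.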

Row | Sequence | switch fluorescence ratio
1 | TCATGGAGAT | 0.965 ± 0.033
2 | TCATGGCCAG | 1.04 ± 0.078
3 | TCATGGGCTT | 1.01 ± 0.0059
4 | TCATGGGGCT | 1.02 ± 0.019
5 | TCATGGTATT | 1.01 ± 0.011
6 | TCATGGTGGG | 1 ± 0.025
7 | TCATGGTTGG | 0.997 ± 0.028
8 | TCATGGTTTT | 0.977 ± 0.016
9 | TCATGTGGTA | 0.9915 ± 0.0093
10 | TCATGTGTTG | 0.992 ± 0.045
11 | TCATTAAGGC | 1.01 ± 0.015
12 | TCATTAAGGG | 0.99105 ± 0.00093
13 | TCATTATAAT | 1.006 ± 0.0062
14 | TCATTATTAA | 1.01 ± 0.027
15 | TCATTCGGAG | 1.02 ± 0.014
16 | TCATTCGTTT | 1.01 ± 0.016
17 | TCATTCTGGG | 1.008 ± 0.0097
18 | TCATTGAAGT | 0.991 ± 0.008
19 | TCATTGATCG | 0.987 ± 0.011
20 | TCATTGATTG | 0.999 ± 0.022
21 | TCATTGGGGT | 0.957 ± 0.033
22 | TCATTGGGTT | 0.977 ± 0.026
23 | TCATTGGTAG | 1.001 ± 0.0054
24 | TCATTGGTT | 0.985 ± 0.021
25 | TCATTGTTAT | 0.999 ± 0.036
26 | TCATTTAAGA | 0.954 ± 0.014

Row | Sequence | switch fluorescence ratio
27 | TCATTTAGGG | 0.9893 ± 0.0081
28 | TCATTTATCA | 1 ± 0.053
29 | TCATTTATGG | 0.999 ± 0.023
30 | TCATTTATTA | 1.04 ± 0.023
31 | TCATTTATTT | 0.98 ± 0.015
32 | TCATTTCCGG | 1.046 ± 0.0072
33 | TCATTTCGGC | 0.982 ± 0.032
34 | TCATTTCTGC | 1.01 ± 0.037
35 | TCATTTGGAG | 0.9816 ± 0.0076
36 | TCATTTGGCA | 0.983 ± 0.01
37 | TCATTTTCCG | 0.996 ± 0.043
38 | TCATTTTGG | 0.992 ± 0.015
39 | TCATTTTTCT | 0.98 ± 0.021
40 | TCATTTTTGG | 1 ± 0.012
41 | TCCAAAGATG | 0.9892 ± 0.005
42 | TCCAAATTTT | 1.02 ± 0.016
43 | TCCAACTGCA | 1.5 ± 0.087
44 | TCCAAGGGTG | 1.46 ± 0.15
45 | TCCAATGATG | 1.03 ± 0.018
46 | TCCACGGGTA | 1.08 ± 0.068
47 | TCCACTGGAT | 1.03 ± 0.013
48 | TCCAGACTCT | 1.02 ± 0.011
49 | TCCAGATTTT | 1 ± 0.012
50 | TCCAGCCCGT | 1.02 ± 0.027
51 | TCCAGCTAAA | 1.09 ± 0.014
52 | TCCAGGAGGT | 1.02 ± 0.033

Row | Sequence | switch fluorescence ratio
53 | TCCAGGCGTA | 1.021 ± 0.0089
54 | TCCAGGCTTT | 1.05 ± 0.071
55 | TCCAGGGGGG | 1.18 ± 0.27
56 | TCCAGGGGTC | 1.38 ± 0.13
57 | TCCAGGTGCG | 2.96 ± 0.33
58 | TCCAGTCATT | 0.998 ± 0.01
59 | TCCAGTGGCT | 1 ± 0.017
60 | TCCAGTGGGA | 1.11 ± 0.087
61 | TCCAGTGTCG | 1.01 ± 0.056
62 | TCCAGTGTTG | 1.08 ± 0.071
63 | TCCAGTTATT | 1 ± 0.019
64 | TCCATACAAG | 0.983 ± 0.055
65 | TCCATAGTGA | 1.26 ± 0.085
66 | TCCATCGGGA | 1.14 ± 0.14
67 | TCCATCGGGT | 1.01 ± 0.038
68 | TCCATGTGTT | 1.01 ± 0.037
69 | TCCATTTATC | 0.982 ± 0.04
70 | TCCCATTTTG | 1.01 ± 0.043
71 | TCCCCAATAA | 3.11 ± 0.39
72 | TCCCCATGGT | 2.07 ± 0.068
73 | TCCCCCACAG | 2.05 ± 0.22
74 | TCCCCGTCTG | 1.14 ± 0.15
75 | TCCCCTGTCG | 1.07 ± 0.085
76 | TCCCCTTGCT | 1.03 ± 0.094
77 | TCCCGATTGG | 0.959 ± 0.028
78 | TCCCGGCCTG | 1.012 ± 0.0041

Row | Sequence | switch fluorescence ratio
79 | TCCCGGGGGG | 1.14 ± 0.26
80 | TCCCGGGTTA | 1.01 ± 0.013
81 | TCCCTATCAC | 1.1 ± 0.042
82 | TCCCTTTGGG | 0.971 ± 0.038
83 | TCCGAAACAT | 1.575 ± 0.011
84 | TCCGAAAGGG | 1.052 ± 0.0062
85 | TCCGAGGGTT | 1.214 ± 0.011
86 | TCCGGATTTT | 1.01 ± 0.016
87 | TCCGGCGGAC | 1.149 ± 0.0078
88 | TCCGGCGGCC | 1.09 ± 0.024
89 | TCCGGCGGTT | 1.01 ± 0.04
90 | TCCGGCGTAT | 1.131 ± 0.0055
91 | TCCGGGAATT | 1.02 ± 0.021
92 | TCCGGGCCCA | 1.038 ± 0.0023
93 | TCCGGTATCG | 1.04 ± 0.016
94 | TCCGTAAATT | 1.14 ± 0.013
95 | TCCGTGGGGG | 1.09 ± 0.14
96 | TCCGTGTGGG | 1.04 ± 0.028
97 | TCCGTTGTTT | 1.03 ± 0.044
98 | TCCGTTTCGG | 0.997 ± 0.047
99 | TCCGTTTTGA | 1.001 ± 0.0095
100 | TCCTAAACGG | 0.988 ± 0.03
101 | TCCTACGGGG | 1.14 ± 0.18
102 | TCCTAGGTGT | 4 ± 0.28
103 | TCCTAGTTGT | 0.9798 ± 0.0013
104 | TCCTATATAA | 1.03 ± 0.058

Row | Sequence | switch fluorescence ratio
105 | TCCTATTAGG | 0.9888 ± 0.0054
106 | TCCTCATGTT | 1.07 ± 0.032
107 | TCCTGGAGCG | 1.08 ± 0.068
108 | TCCTGGATGG | 0.98 ± 0.022
109 | TCCTGGCTGT | 1.09 ± 0.027
110 | TCCTGGCTTT | 1.26 ± 0.29
111 | TCCTGGTGAT | 1.22 ± 0.12
112 | TCCTGTCTTT | 1.01 ± 0.014
113 | TCCTGTGGGA | 1.007 ± 0.0053
114 | TCCTTCACCT | 1.24 ± 0.069
115 | TCCTTGCTGT | 1.12 ± 0.095
116 | TCCTTGTAAG | 1.01 ± 0.03
117 | TCCTTGTAGT | 1.11 ± 0.17
118 | TCCTTTATTG | 1.01 ± 0.021
119 | TCCTTTTAGA | 1.01 ± 0.011
120 | TCCTTTTGG | 0.996 ± 0.044
121 | TCGAAATAGG | 1.005 ± 0.0023
122 | TCGAAATCGG | 1.03 ± 0.021
123 | TCGAAGAAGT | 0.997 ± 0.016
124 | TCGAAGCCGG | 0.9774 ± 0.0061
125 | TCGAAGGCAT | 1.06 ± 0.03
126 | TCGAAGGGGT | 0.982 ± 0.013
127 | TCGAAGTCAG | 1.06 ± 0.044
128 | TCGAATAACT | 2.2 ± 1.7
129 | TCGAATATCA | 1.007 ± 0.0097
130 | TCGAATTTGT | 0.99 ± 0.03

Row | Sequence | switch fluorescence ratio
131 | TCGACAAAGG | 1.07 ± 0.021
132 | TCGACATGGT | 0.995 ± 0.041
133 | TCGACCATCG | 0.974 ± 0.033
134 | TCGACCTTCT | 1.77 ± 0.17
135 | TCGACGATTT | 1.23 ± 0.26
136 | TCGACGGGGG | 1.06 ± 0.081
137 | TCGAGACAGG | 1 ± 0.027
138 | TCGAGAGTAG | 0.948 ± 0.016
139 | TCGAGATGTA | 1.03 ± 0.067
140 | TCGAGATTAA | 1.01 ± 0.024
141 | TCGAGCAGTG | 1.06 ± 0.013
142 | TCGAGCCGAA | 1.04 ± 0.019
143 | TCGAGGAGTT | 1.012 ± 0.01
144 | TCGAGGCTGT | 1.18 ± 0.05
145 | TCGAGGGAAG | 0.998 ± 0.023
146 | TCGAGGGTCT | 1.023 ± 0.0083
147 | TCGAGTATCG | 1.02 ± 0.044
148 | TCGAGTCGGT | 1.02 ± 0.034
149 | TCGAGTTGGT | 1.01 ± 0.0018
150 | TCGAGTTGTT | 0.988 ± 0.021
151 | TCGAGTTTGC | 0.931 ± 0.027
152 | TCGATAAATG | 1.06 ± 0.033
153 | TCGATAATTT | 0.986 ± 0.022
